According to article PMC3293901, “Identification, Purification and Characterization of Laterosporulin, a Novel Bacteriocin Produced by Brevibacillus sp. Strain GI-9” (PLoS ONE, 2012):

How the values were obtained:
E. coli [1] = test: Growth inhibition assay of the synthetic partial peptide; type: cell-based; settings: custom synthesized 19-mer, indicator strain E. coli
From the text: (§1) The molecular mass observed for laterosporulin by MALDI-TOF was 5605.8 Da ( Fig. 3 ), which is in good agreement with mass obtained by gel filtration chromatography ( Fig. 2A ). The N-terminal sequence of laterosporulin yielded partial sequence of ^1A(M)Q(C)QG(C/Q)PDAISGWTHTDYQCH^19 for two independently processed samples. The uncertainties at the 1st, 2nd and 4th positions obtained in N-terminal sequences were considered to predict the antibacterial activity of each possible peptide sequence using a database of peptides with known antimicrobial potency. […] To confirm the antimicrobial activity of this partial peptide, it was custom synthesized, mass was confirmed by MALDI-TOF and the synthetic peptide was examined in growth inhibition assays using indicator strains B. subtilis and E. coli.
(§2) To evaluate antibacterial function of the N-terminal peptide, a 19-mer peptide representing the N-terminal sequence of the bioactive protein was synthesized using standard Fmoc-chemistry on 2-chlorotrityl resin (0.2 mmol/g). Synthesis was carried out on a semi-automated synthesizer (PS-II) (Protein Technologies Inc., AZ USA). It was cleaved with TFA and purified by RP-HPLC system (Dionex, Ultimate-3000) using C-18 analytical column. The purified peptide was subjected to MALDI-TOF analysis for confirmation of molecular mass.

B. subtilis = test: as above; type: cell-based; settings: custom synthesized 19-mer, indicator strain B. subtilis
From the text: as §1, §2

[2] = Treatment with dithiothreitol, residual antimicrobial activity; type: physicochemical; settings: DTT used to disrupt disulfide bonds; data not shown
E. coli [3] = test: Bactericidal effect by scanning electron microscopy; type: cell-based; settings: 500 µg/ml purified peptide, 4 hours, 37°C, about 2×10^7 cells/ml; compared to untreated bacteria
Procedure: To examine the bactericidal activity, E.coli cells were grown in NB to an exponential phase, harvested by centrifugation. The pellet obtained was resuspended in fresh NB and aliquots of 5 ml containing about 2×10^7 cells/ml were incubated at 37°C for 4 hours with 500 µg/ml laterosporulin. Samples at 0, 2 and 4 hours interval were centrifuged and pellets were resuspended in 500 µl of phosphate buffer. Each sample was spread on a poly (L-lysine)-coated glass slides (18×18 mm) to immobilize bacterial cells and incubated at 30°C for 90 min. They were fixed with modified Karnovsky's fixative and dehydrated with a graded ethanol series.

[4] = system: Gram-positive and Gram-negative bacteria; test: Antibacterial spectrum; type: cell-based; settings: wide range of Gram-positive and Gram-negative bacteria
Procedure: (§3) The CFB of strain GI-9 was used to determine the antimicrobial activity. Culture was grown for 48 hours in nutrient broth (NB, Himedia) and subsequently cells were removed by centrifugation (10,000 rpm for 10 min, 4°C). The supernatant obtained was filtered by using 0.22 µm filter (Millipore). The filtrate was diluted by two fold dilution and amounts of 100 µl of different dilutions were used to test the activity. These dilutions were added to the wells that are prepared in plates containing nutrient agar medium seeded with test organism. Above test was also performed using minimal medium to check influence of the medium components on antimicrobial activity. A growth curve up to 24 hours was prepared for strain GI-9 to examine the bacteriocin production at different stages. One unit of bacteriocin was defined as the […] dilution that was given an inhibition zone around the well and reciprocal of this dilution is defined as the unit of antimicrobial activity per ml.
The MIC of bacteriocin for different strains was evaluated by using a microtiter plate dilution assay. […] The first column of the microtiter plate was left as a blank while reading through an ELISA plate reader (Thermo Scientific). The microtiter plates were incubated at 30°C incubator and OD was measured at 600 nm at different time intervals.

[5] = pH stability, residual antimicrobial activity; type: physicochemical
Procedure: (§4) The sensitivity of the purified bacteriocin towards different pH, temperature and proteases was evaluated. To determine pH and temperature resistance, the purified peptide was incubated at different pH values between 2.0–12.0 and temperatures 80, 100°C for 30 min and 120°C for 15 min. Different hydrolytic enzymes including pepsin, trypsin, chymotrypsin, proteinase K, pronase E and amylase were incubated with bacteriocin for 6 hours at 37°C to ensure their effect. The enzyme activity was terminated by heating at 80°C before the bacteriocin activity was confirmed.

pepsin = test: Resistance to proteolytic enzyme, residual antimicrobial activity; type: in vitro ADME; settings: 6 hours at 37°C, enzyme terminated by heating at 80°C
Procedure: as §4

pronase E = test: as above; type: in vitro ADME; settings: 6 hours at 37°C, enzyme terminated by heating at 80°C
Procedure: as §4

chymotrypsin = test: as above; type: in vitro ADME; settings: 6 hours at 37°C, enzyme terminated by heating at 80°C
Procedure: as §4

proteinase K = proteinase K (Parengyodontium album, UniProt P06873); test: as above; type: in vitro ADME; settings: 6 hours at 37°C, enzyme terminated by heating at 80°C
Procedure: as §4

trypsin = test: as above; type: in vitro ADME; settings: 6 hours at 37°C, enzyme terminated by heating at 80°C
Procedure: as §4

[6] = Heat stability, residual antimicrobial activity; type: physicochemical; settings: 120°C for 15 min
Procedure: as §4

L. monocytogenes = test: Growth inhibition of test strain; type: cell-based; settings: test strain L. monocytogenes (MTCC 839)
Procedure: as §3

S. aureus = test: MIC, microtiter plate dilution assay; type: cell-based; settings: purified laterosporulin, micro-titer plates, triplicates, 30°C, OD 600 nm, 48 h
Procedure: (§5) The MIC of bacteriocin for different strains was evaluated by using a microtiter plate dilution assay. Test strains were grown to logarithmic phase under optimal conditions (up to 0.3 OD) and the test was performed in triplicates. Each well of the microtiter plate was added with 200 µl of fresh nutrient medium and 50 µl of test strains in different rows. Subsequently, different dilutions (50 µl) of freshly prepared bacteriocin were added to each well. The first column of the microtiter plate was left as a blank while reading through an ELISA plate reader (Thermo Scientific). The microtiter plates were incubated at 30°C incubator and OD was measured at 600 nm at different time intervals.

B.subtilis = test: MIC, microtiter plate dilution assay; type: cell-based; settings: purified laterosporulin, micro-titer plates, triplicates, 30°C, OD 600 nm, 48 h
Procedure: as §5

proteinase K, sequence (P06873 106-384): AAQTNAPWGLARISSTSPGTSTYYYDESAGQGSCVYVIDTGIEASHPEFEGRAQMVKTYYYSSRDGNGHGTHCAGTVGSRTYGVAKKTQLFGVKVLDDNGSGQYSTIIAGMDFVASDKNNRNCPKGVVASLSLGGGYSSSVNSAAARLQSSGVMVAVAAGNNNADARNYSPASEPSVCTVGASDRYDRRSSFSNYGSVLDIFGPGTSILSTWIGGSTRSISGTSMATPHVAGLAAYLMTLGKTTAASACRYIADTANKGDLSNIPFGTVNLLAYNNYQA

Substance	antimicrobial activity (E. coli [1])	antimicrobial activity (B. subtilis)	antimicrobial activity after treatment with dithiothreitol (DTT) [2]	bactericidal effect, cell morphology by SEM (E. coli [3])	antibacterial activity [4]	pH stability (antimicrobial activity after incubation) ([5]; above pH 10 (tested up to 12.0))	pH stability (antimicrobial activity after incubation) ([5]; pH between 2.0 to 10.0)	antimicrobial activity after incubation with pepsin (pepsin)	antimicrobial activity after incubation with pronase E (pronase E)	antimicrobial activity after incubation with chymotrypsin (chymotrypsin)	antimicrobial activity after incubation with proteinase K (proteinase K)	antimicrobial activity after incubation with trypsin (trypsin)	heat stability (antimicrobial activity after exposure) [6]	growth inhibition (L. monocytogenes)	MIC (sensitivity in words, values only in Fig. 4) (S. aureus)	MIC (sensitivity in words, values only in Fig. 4) (B.subtilis)
ACQCPDAISGWTHTDYQCH	weak antimicrobial activity at significantly higher concentration	weak antimicrobial activity at significantly higher concentration														
^1A(M)Q(C)QG(C/Q)PDAISGWTHTDYQCH^19 [laterosporulin, 5.6 kDa bacteriocin purified from culture supernatant of Brevibacillus sp. strain GI-9]			did not affect	significant modifications in cell shape and morphology	active	reduced significantly	no reduction in antimicrobial activity	did not show any reduction	did not show any reduction	did not show any reduction	did not show any reduction	did not show any reduction	no reduction in antimicrobial activity	could inhibit the growth	highly sensitive	highly sensitive
